Laboratory results from the supplement of paper PMC12764529.
± gives the half width of the 95% confidence interval.

How the values were obtained:
[1] = folding stability dG unfold from chymotrypsin proteolysis; higher = more stable
Summary of the method: (§1)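 Sequencing followed digestion of designed mini-proteins with trypsin and chymotrypsin, each at 11 concentrations in threefold dilutions together with a no-protease condition. The mini-proteins were under 80 residues, had no cysteine, sat in a PA-tagged cDNA display construct, and were kept only if AlphaFold2 dimer inter-PAE was above 15. From the counts, Bayesian fitting gave K50, and unfolding free energy was derived against a sequence-predicted unfolded-state K50 and a shared folded-state K50, per protease or combined.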

[2] = folding stability dG unfold from trypsin proteolysis; higher = more stable
Summary of the method: as §1

[3] = folding stability dG unfold (combined trypsin and chymotrypsin); higher = more stable
Summary of the method: as §1

Row | Sequence | folding stability dG unfold [1] [kcal/mol] | folding stability dG unfold [2] [kcal/mol] | folding stability dG unfold [3] [kcal/mol]
1 | SAKKIKIKEITITVEKNKDGSYTITITVDGKKIAELTFKTPEEAEKAAEELAKELAKKLNVDKIEIKPTSAG [r14_791_TrROS_Hall] | 2.69 ± 0.25 | 1.5 ± 0.18 | 2.09 ± 0.22
2 | SAKKKKVKKKEIKVTLKLKLPGAKIKSVKVEKKGDKLVITVEIELENGEKLKLTAVFDKDGKIVKIELESAG [r14_719_TrROS_Hall] | 1.96 ± 0.061 | 1.11 ± 0.11 | 1.74 ± 0.38
3 | SAKKPKKVIEVTIVLPLEELKNMSLEELLKKILEELGIKEGEKVKIEVKLEEVEIDGKKYLVITVRIELSAG [r14_334_TrROS_Hall] | 2.69 ± 0.11 | 2.87 ± 0.13 | 2.69 ± 0.15
4 | SAKKTVKLKIEIYKVKVEKLKDGKEKITEVEKIAELEIEAEVDEDGKVTIRIDGKEIEVPAGTSLEELLSAG [r14_909_TrROS_Hall] | 3.06 ± 0.12 | 2.22 ± 0.17 | 2.76 ± 0.18
5 | SAKKVKIEIKNKETNKIYTIEIKEDGKVTIKNKETGEEIEVEINGKKITFPPGASIDEIIKKLEEALKKSAG [r14_561_TrROS_Hall] | 2.77 ± 0.12 | 1.72 ± 0.16 | 2.56 ± 0.31
6 | SAKKYIIRVKVKINGKEYEIEIEADSLEEALAKLKEELKKLFPGEKIEEVKIEVYDAKTGEKKEITLKLSAG [r14_54_TrROS_Hall] | 4.2 ± 0.16 | 2.76 ± 0.12 | 4 ± 0.35
7 | SAKPVAEGPIRIPNGFEIEITQIKPDKENGEIVIPIEIEMWRPERDPEDPNQPKWEPQEMNIAFTIPLDSAG [r14_888_TrROS] | 0.119 ± 0.81 | 1.3 ± 0.14 | 0.857 ± 0.22
8 | SAKRVNVEIWIPGDWDEIQEIAEDINFPVEIERNPDKPDMYRITFTFPTPEKAPKILDALNKHGMQIEISAG [r14_745_TrROS] | 1.89 ± 0.081 | 1.33 ± 0.063 | 1.64 ± 0.17
9 | SAKTKTIEIEVKIKLIEIDPKTGKKTEKEFTAKATITYDEENNVVTIKIEFKDNGKTITITLPPGAKIKSAG [r14_587_TrROS_Hall] | 2.25 ± 0.14 | 2.1 ± 0.098 | 2.26 ± 0.27
10 | SAKVVIIKVKSPEELKAAIEELKKKLPEGAVIYIVNEDGSVYKITFDKKTGKVKIEKVKSLEELKKLLKSAG [r14_913_TrROS_Hall] | 3.96 ± 0.086 | 2.31 ± 0.054 | 3.47 ± 0.14
11 | SALLEPLLLEVYIPATGEVITVPAKSLEEAEAIIAEVRADPTVASVRITLPDGTVVEVSFNVSPAAYLKSAG [r14_747_JUSTAS] | 0.13 ± 0.16 | 0.42 ± 0.12 | 0.304 ± 0.2
12 | SALSASELAKRVRDRIKELSNEEGYNVDIKVDVQPNEDGSVTVHIQFDSPWMIKRIKEKLPPGVNVEIMSAG [r14_491_TrROS] | 2.421 ± 0.021 | 3.15 ± 0.073 | 2.75 ± 0.05
13 | SAMDIGPEERAELLLRTLANIAKEEIEKGDLEKAKIFVINGIAEENPPLAERILKEAKELGLPVIILPESAG [r14_908_TrMRF] | 1.13 ± 0.076 | 0.659 ± 0.1 | 0.981 ± 0.059
14 | SAMEKGKALKYREVIPLPDGPVELEIIYFPETGEYVAIIRNPSTGEKVEIPFKFDSLEDAVKAAKDFVASAG [r14_65_TrMRF] | 3.705 ± 0.029 | 2.06 ± 0.11 | 3.29 ± 0.076
15 | SAMEKPLETLEIPIPGLPVTVKITIYPSHIEKAKESGIPEITVEALLTIELPDGSKVEKKIPLTVKIPGSAG [r14_100_JUSTAS] | 1.67 ± 0.042 | 1.58 ± 0.043 | 1.61 ± 0.11
16 | SAMIEVINATDPVTGKPYTITREGEGITVTDPETGKTYAATKDGDTITLDAGDTPLTLTPVSTVPESLLSAG [r14_208_JUSTAS] | 0.989 ± 0.16 | 0.839 ± 0.041 | 1.01 ± 0.1
17 | SAMIIVAMAPDRMLIIGPDGRVLVVDDPEKAIELIKELFPVPIIVIPVPEDSPVFRELLERLERERTGESAG [r14_235_TrMRF] | 3.18 ± 0.11 | 2.71 ± 0.08 | 2.91 ± 0.14
18 | SAMITVEIVDPLPDIANLSEEEAKALAEELAEEYAKKKFPNENVKITKVEVELEPETPEIRVTVTLELKSAG [r14_310_JUSTAS] | 2.56 ± 0.083 | 2.09 ± 0.16 | 2.37 ± 0.15
19 | SAMIVKDLKTKEEIKKVLEEIAKKLGYPNVTPEEAEEILKKIGVKILSIEKNPKNPEKYIIKIKIEKPKSAG [r14_678_JUSTAS] | 2.34 ± 0.033 | 2.23 ± 0.1 | 2.29 ± 0.14
20 | SAMIVVTLTINPITGKPILIFDPGVGVYAIDPETGEPHEATVDGDTLTLNFGNRPILLTPEAVIPPEELSAG [r14_208_TrMRF] | 1.41 ± 0.079 | 0.94 ± 0.017 | 1.21 ± 0.067
21 | SAMKFKKGAKIEIEVEKVEEKEIDGKTVAVYRMKIKIEVDGKKYEIEVEIYYDKETKEWKIVKVEIKEVSAG [r14_293_TrROS_Hall] | 3.13 ± 0.046 | 3.55 ± 0.33 | 3.33 ± 0.19
